From patent US20200283525A1 (published 2020)
Residue numbers refer to the chain shown, from its start.

B1: 9D9 DMAb original (antibody)
chain 1: EAKLQESGPVLVKPGASVKMSCKASGYTFTDYYMNWVKQSHGKSLEWIGVINPYNGDTSYNQKFKGKATLTVDKSSSTAYMELNSLTSEDSAVYYCARYYGSWFAYWGQGTLITVSTAKTTPPSVYPLAPGCGDTTGSSVTLGCLVKGYFPESVTVTWNSGSLSSSVHTFPALLQSGLYTMSSSVTVPSSTWPSQTVTCSVAHPASSTTVDKKLEPSGPISTINPCPPCKECHKCPAPNLEGGPSVFIFPPNIKDVLMISLTPKVTCVVVDVSEDDPDVQISWFVNNVEVHTAQTQTHREDYNSTIRVVSTLPIQHQDWMSGKEFKCKVNNKDLPSPIERTISKIKGLVRAPQVYILPPPAEQLSRKDVSLTCLVVGFNPGDISVEWTSNGHTEENYKDTAPVLDSDGSYFIYSKLNMKTSKWEKTDSFSCNVRHEGLKNYYLKKTISRSPGK
chain 2: DIVMTQTTLSLPVSLGDQASISCRSSQSIVHSNGNTYLEWYLQKPGQSPKLLIYKVSNRFSGVPDRFSGSGSGTDFTLKISRVEAEDLGVYYCFQGSHVPYTFGGGTKLEIKRADAAPTVSIFPPSSEQLTSGGASVVCFLNNFYPKDINVKWKIDGSERQNGVLNSWTDQDSKDSTYSMSSTLTLTKDEYERHNSYTCEATHKTSTSPIVKSFNRNEC
B2: 9D9 DMAb mod #3 (antibody)
chain 1: B1 chain 1 with A2V, K3Q, E6Q
chain 2: B1 chain 2
B3: 9D9 DMAb mod #2 (antibody)
chain 1: B1 chain 1 with I113V, T117S
chain 2: B1 chain 2
B4: 9D9 DMAb mod #4 (antibody)
chain 1: B1 chain 1 with A2V, K3Q, E6Q, I113V, T117S
chain 2: B1 chain 2
B5: 9D9 standard (antibody)
chain 1: B1 chain 1
chain 2: B1 chain 2

Tests used:
[1] = target: mouse CTLA-4 protein (mouse, UniProt P09793 36-161); experiment: ELISA
[2] = target: Mouse CTLA4 (mouse, UniProt P09793 36-161); experiment: ELISA

Row | Binder | IC50 [1] | IC50 [2]
1 | B1 | 0.0434 µg/mL | –
2 | B2 | 0.0361 µg/mL | –
3 | B3 | 0.0409 µg/mL | –
4 | B4 | 0.0367 µg/mL | –
5 | B5 | – | 0.0442 µg/mL
